Columns and labels:
Assay in all cases: SEC
[1] = molecular target: recombinant palivizumab dimeric IgA2 (UniProt P01591)
[2] = molecular target: recombinant motavizumab dimeric IgA1 (UniProt P01591)
[3] = molecular target: recombinant palivizumab dimeric IgA1 (UniProt P01591)
[4] = molecular target: recombinant motavizumab dimeric IgA2 (UniProt P01591)

Measured: sIgA formation

secretory component (domain or fragment)
100%: all assays above

Source: publication PMC5939987
